The target in experiment [1] is T1, human Myl12a-His (human, UniProt P19105 1-171).
T1 construct: Made in E. coli; GST tag cleaved with PreScission Protease; DTT-treated monomer
T1 sequence: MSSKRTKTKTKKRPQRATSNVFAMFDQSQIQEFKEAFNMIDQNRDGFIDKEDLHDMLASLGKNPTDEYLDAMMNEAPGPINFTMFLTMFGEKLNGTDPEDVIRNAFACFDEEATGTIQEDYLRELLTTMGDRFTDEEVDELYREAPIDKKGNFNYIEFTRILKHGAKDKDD
The experiment can be described thus: ELISA, human Myl12a-His coated, anti-Flag-HRP. Here is the method:
(§1) Evaluation of binding between human Myl9, Myl12a and Myl12b and human CD69 extracellular region protein was carried out by ELISA. Human Myl3-His, human Myl9-His, human Myl12a-His and human Myl12b-His prepared in Example 5 were coated onto the wells of a 96-well plate (Nunc), respectively. After an overnight incubation at 4° C., the wells were blocked at room temperature for one hour with 1× Block Ace (DS Pharma Biomedical Co., Ltd.). After washing three times with 0.02% Tween 20/PBS, six serial dilutions by three folds of 3× Flag-human CD69 EC protein were made from a concentration of 10 μg/mL by 50 mM NaOAc (pH 5.5)/150 mM NaCl/0.02% Tween 20 and added to the wells. After incubation at room temperature for one and half hour and washing three times with 50 mM NaOAc (pH 5.5)/150 mM NaCl/0.02% Tween 20, horseradish peroxidase-labeled anti-Flag (M2) antibody (SIGMA) was added, and this was incubated at room temperature for one hour. After washing 5 times, TMBZ (3,3′,5,5′-tetramethylbenzidine) solution was added to the wells, and this was incubated for 5-20 minutes at room temperature. An equal amount of reaction quenching solution (2N H₂SO₄) was added to the wells, and absorbance at 450 nm was read with a microplate reader (Thermo Scientific).
In general terms: ELISA stands for enzyme-linked immunosorbent assay.

Experiment [2] deals with T2, human Myl9-His (human, UniProt P24844 2-172, limits assumed).
T2 construct: Made in E. coli; the GST tag was cleaved with PreScission Protease
T2 sequence: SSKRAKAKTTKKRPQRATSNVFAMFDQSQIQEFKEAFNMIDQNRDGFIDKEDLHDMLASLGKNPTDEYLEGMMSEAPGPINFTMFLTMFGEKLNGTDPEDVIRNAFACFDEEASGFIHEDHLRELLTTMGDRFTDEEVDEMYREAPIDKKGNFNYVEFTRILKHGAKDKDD
The experiment can be described thus: ELISA, human Myl9-His coated, anti-Flag-HRP. The protocol:
as §1

Experiment [3] addresses T3, human Myl12b-His (human, UniProt O14950 1-172).
T3 construct: Made in E. coli; GST tag cleaved with PreScission Protease; DTT-treated monomer
T3 sequence: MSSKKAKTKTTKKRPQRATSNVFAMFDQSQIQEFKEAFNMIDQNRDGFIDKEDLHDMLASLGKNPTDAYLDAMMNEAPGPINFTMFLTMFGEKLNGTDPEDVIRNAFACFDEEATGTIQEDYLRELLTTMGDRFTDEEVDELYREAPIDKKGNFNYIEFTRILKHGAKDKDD
Put plainly: ELISA, human Myl12b-His coated, anti-Flag-HRP. The protocol: as §1

The target of experiment [4] is T4, human Myl3-His (human, UniProt P08590 2-195, limits assumed).
T4 construct: Made in E. coli; the GST tag was cleaved with PreScission Protease
T4 sequence (P08590 2-195 limits assumed): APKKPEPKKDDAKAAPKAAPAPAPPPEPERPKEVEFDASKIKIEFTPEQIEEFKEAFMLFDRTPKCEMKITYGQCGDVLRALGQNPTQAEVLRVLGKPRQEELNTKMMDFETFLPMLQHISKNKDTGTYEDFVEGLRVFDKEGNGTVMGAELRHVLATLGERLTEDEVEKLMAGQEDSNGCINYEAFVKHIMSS
Put plainly: ELISA, human Myl3-His coated, pH 5.5 buffer, anti-Flag-HRP. The protocol: as §1

Experiment [5] deals with T4, human Myl3-His. Put plainly: ELISA, human Myl3-His coated, anti-mouse IgG-HRP. The protocol:
(§2) The binding ability against mouse/human Myl9 was evaluated following the steps below by ELISA. Mouse Myl3-His, mouse Myl9-His, human Myl3-His, and human Myl9-His were coated onto the wells of a 96-well plate (Nunc). After an overnight incubation at 4° C., the wells were blocked at room temperature for one hour with 1× Block Ace (DS Pharma Biomedical Co., Ltd.). After washing three times with 0.02% Tween 20/PBS, ten serial dilutions by four folds of Antibody A were made from a concentration of 10 μg/mL and added to the wells. After incubation at room temperature for one hour and washing three times, horseradish peroxidase-labeled anti-mouse IgG antibody (Jackson ImmunoResearch Laboratories) was added, and this was incubated at […] temperature for one hour. After washing 5 times, TMBZ (3,3′,5,5′-tetramethylbenzidine) solution was added to the wells, and this was incubated for 5-20 minutes at room temperature. An equal amount of reaction quenching solution (2N H₂SO₄) was added to the wells, and absorbance at 450 nm was read with a microplate reader (PerkinElmer).

The target of experiment [6] is T5, mouse Myl12b-His (mouse, UniProt Q3THE2 1-172, limits assumed).
T5 construct: Made in E. coli; GST tag cleaved with PreScission Protease; DTT-treated monomer
T5 sequence: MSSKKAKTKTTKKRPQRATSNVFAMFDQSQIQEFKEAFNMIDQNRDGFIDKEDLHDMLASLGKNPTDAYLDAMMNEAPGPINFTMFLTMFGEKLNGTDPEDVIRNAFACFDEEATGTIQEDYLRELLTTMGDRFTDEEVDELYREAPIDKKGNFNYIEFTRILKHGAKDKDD
Put plainly: ELISA, mouse Myl12b-His coated, anti-mouse IgG-HRP. The protocol: (§3) The binding ability of Antibody A against mouse/human Myl12a and Myl12b was evaluated following the steps below by ELISA. Mouse Myl3-His, mouse Myl9-His, mouse Myl12a-His, mouse Myl12b-His, human Myl3-His, human Myl9-His, human Myl12a-His, and human Myl12b-His were coated onto the wells of a 96-well plate (Nunc). After an overnight incubation at 4° C., the wells were blocked at room temperature for one hour with 1× Block Ace (DS Pharma Biomedical Co., Ltd.). After washing three times with 0.02% Tween 20/PBS, eleven serial dilutions by four folds of Antibody A were made from a concentration of 10 μg/mL and added to the wells. After incubation at room temperature for one hour and washing three times, horseradish peroxidase-labeled anti-mouse IgG antibody (Jackson ImmunoResearch Laboratories) was added, and this was incubated at room temperature for one hour. After washing 5 times, TMBZ (3,3′,5,5′-tetramethylbenzidine) solution was added to the wells, and this was incubated for 5-20 minutes at room temperature. An equal amount of reaction quenching solution (2N H₂SO₄) was added to the wells, and absorbance at […] was read with a microplate reader (Thermo Scientific).

Experiment [7] deals with T3, human Myl12b-His. Put plainly: ELISA, human Myl12b-His coated, anti-mouse IgG-HRP. Here is the method: as §3
Experiment [8] addresses T6, mouse Myl3-His (mouse, UniProt P09542 2-204, limits assumed).
T6 construct: Made in E. coli; the GST tag was cleaved with PreScission Protease
Put plainly: ELISA, mouse Myl3-His coated, anti-mouse IgG-HRP. The protocol:
as §2

Experiment [9] addresses T7, mouse/human Myl9 peptide-BSA (mouse and human (common sequence), added C-terminal Cys coupled to maleimide-activated BSA).
T7 construct: Synthetic peptide conjugated to bovine serum albumin
T7 peptide: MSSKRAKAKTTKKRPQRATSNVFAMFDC
The experiment can be described thus: ELISA, mouse/human Myl9 peptide-BSA coated, hybridoma supernatant. Here is the method: ELISA employing mouse/human Myl9 peptide-BSA was carried out according to the following steps. Mouse/human Myl9 peptide-BSA was coated onto the wells of a 96-well plate (Num). After an overnight incubation at 4° C., the wells were blocked at room temperature for one hour with 1× Block Ace (DS Pharma Biomedical Co., Ltd.). After washing three times with 0.02% Tween 20/PBS, the culture supernatant of said fused cells was added to the wells. After incubation at room temperature for one hour and washing three times, horseradish peroxidase-labeled anti-mouse IgG antibody (Jackson ImmunoResearch Laboratories) was added, and this was incubated at room temperature for one hour. After washing 5 times, TMBZ (3,3′,5,5′-tetramethylbenzidine) solution was added to the wells, and this was incubated for 5-20 minutes at room temperature. An equal amount of reaction quenching solution (2N H₂SO₄) was added to the wells, and absorbance at 450 nm was read with a microplate reader (PerkinElmer).

In experiment [10] the target is T1, human Myl12a-His. The experiment can be described thus: ELISA, human Myl12a-His coated, anti-mouse IgG-HRP. Here is the method:
as §3

For experiment [11], the target named is T8, mouse Myl12a-His (mouse, UniProt Q3THE2 1-172 at identity 1.00), limits assumed).
T8 construct: Made in E. coli; GST tag cleaved with PreScission Protease; DTT-treated monomer
T8 chain: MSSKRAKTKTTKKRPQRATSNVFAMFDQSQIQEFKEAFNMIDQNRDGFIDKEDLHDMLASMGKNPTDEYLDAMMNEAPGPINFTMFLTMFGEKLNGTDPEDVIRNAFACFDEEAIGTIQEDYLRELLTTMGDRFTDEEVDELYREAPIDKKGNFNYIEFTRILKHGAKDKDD
Put plainly: ELISA, mouse Myl12a-His coated, anti-mouse IgG-HRP. The protocol: as §3

For experiment [12], the target named is T9, mouse Myl9-His (mouse, UniProt Q9CQ19 2-172, limits assumed).
T9 construct: Made in E. coli; the GST tag was cleaved with PreScission Protease and leftover vector residues are not described
T9 sequence: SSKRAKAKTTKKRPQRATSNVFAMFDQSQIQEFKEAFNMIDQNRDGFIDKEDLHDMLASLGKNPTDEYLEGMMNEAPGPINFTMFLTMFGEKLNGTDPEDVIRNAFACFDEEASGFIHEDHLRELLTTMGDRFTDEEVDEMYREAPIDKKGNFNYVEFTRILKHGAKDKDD
The experiment can be described thus: ELISA, mouse Myl9-His coated, anti-mouse IgG-HRP. Here is the method:
as §2

Experiment [13] concerns the target T2, human Myl9-His. The experiment can be described thus: ELISA, human Myl9-His coated, anti-mouse IgG-HRP. Here is the method: as §2

T6 sequence (P09542 2-204 limits assumed): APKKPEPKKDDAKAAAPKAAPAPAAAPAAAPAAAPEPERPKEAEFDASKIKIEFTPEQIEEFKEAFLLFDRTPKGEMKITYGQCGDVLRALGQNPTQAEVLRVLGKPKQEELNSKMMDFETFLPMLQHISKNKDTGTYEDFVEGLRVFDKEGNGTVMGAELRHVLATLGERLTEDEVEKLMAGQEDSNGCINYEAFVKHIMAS

B1: 3× Flag-human CD69 EC protein (receptor, not shown: small tags and cut ends)
chain: GQYNCPGQYTFSMPSDSHVSSCSEDWVGYQRKCYFISTVKRSWTSAQNACSEHGATLAVIDSEKDMNFLKRYAGREEHWVGLKKEPGHPWKWSNGKEFNNWFNVTGSDKCVFLKNTEVSSMECEKNLYWICNKPYK
notes: Made in Expi293F cells and purified on Anti-Flag M2 gel; The dimerized protein was collected by Superdex200 or Superdex75; also called human CD69 extracellular region protein; extracellular region of human CD69
For B1, the binding result in experiment [1] is reported as “binds”; in experiment [2], “binds”; in experiment [3], “binds”; in experiment [4], “no binding (tested: 10 µg/mL)”.

B2: mouse anti-mouse/human Myl9 monoclonal antibody (Antibody A) (antibody, V domains shown)
VH: QVQLQQSGAEVVRPGASVTLSCKASGYTFTDYEMHWVKQTPVHGLEWIGAIDPETGGTAYNQKFKGKAILTADKSSNTAYMELRSLTSEDSAVYYCTDYDYDGFAYWGQGTLVTVSA
VL: DVVMTQTPLSLPVSLGDQASISCRSSQSLVHSNGNTYLHWYLQKPGRSPKLLISKVSNRFSGVPDRFSGSGSGTDFTLKITRVEAEDLGVYFCSQNTHVPPLTFGAGTKLELK
notes: Hybridoma antibody purified with Protein A; isotype printed as 'IgG2e, kappa'; also called mAb A; anti-mouse/human Myl9 antibody
Take B2: the binding result in experiment [5] is “no binding (tested: 10 µg/mL)”; in experiment [6], “binds”; in experiment [7], “binds”; in [8] it was “no binding (tested: 10 µg/mL)”; in [9], “binds”; in experiment [10] it was “binds”. Besides, the binding result in [11], in experiment [12] and in experiment [13] was “binds” throughout.

Values taken from patent publication US20190002588A1 (NATIONAL UNIVERSITY CORPORATION CHIBA UNIVERSITY, published 2019).
